Experimental findings from patent publication US20150307569, “HETEROGENEOUS NUCLEAR RIBONUCLEOPROTEIN A2* (HNRNP A2*) AND NUCLEIC ACID ENCODING THE SAME” (Institute of Zoology, Chinese Academy of Sciences, published 2015) are described below.

Data set [1] has as its target T1, hnRNP A2* (hnRNP A2 isoform lacking exons 7-9) (Rattus norvegicus). Description: EMSA; 150 mM KCl, 4 C. Conditions: tags: His6 (pET-28b, E. coli BL21(DE3)); label: 5' 32P. The protocol:
(§1) 80 nM oligonucleotides having 5′ ends labeled with [γ-³²P] ATP (³²P-labeled oligonucleotides) were incubated with 400 nM recombinant hnRNP A2* at 4° C. for 30 min in a binding buffer [10 mM Tris(hydroxymethyl)metyl aminomethane (Tris) (pH 8.0), 1 mM ethylenediaminetetraacetic acid (EDTA), and 150 mM KCl] and resolved on a 8% (wt/vol) native PAGE gel. The gel was then visualized by phosphoimaging using a Typhoon PhosphorImager.
(§2) The cDNA encoding hnRNP A2* was cloned and expressed in Escherichia coli, producing a recombinant protein with the expected molecular mass (FIG. 2A). The exons 7-9 coded the glycine-rich domain (GRD) and provided additional DNA/RNA binding sites in addition to two RNA recognition sites (RRM). […] This is in contrast to hnRNP which has a broad DNA-binding specificity with the consensus sequence N(A,C,T)(C,T)(A,G)G(C,G,T)(A,T)NNN. […] The binding specificity of hnRNP A2* was further verified by constructing 10 mutant variants of the MBS, each carrying a single mutation to cytosine at each nucleotide. All the mutations within the MBS abolished the bindings except the mutations of thymines in the vicinity of GGG (FIG. 2E).

Data set [2] deals with T1, hnRNP A2* (hnRNP A2 isoform lacking …). Description: EMSA; per text. Conditions: tags: His6 (pET-28b, E. coli BL21(DE3)); label: 5' 32P. The protocol:
as §1, §2
Background: In EMSA bound probe runs differently from free probe, usually more slowly.

The target is the same in data set [3]. Description: EMSA; G-quadruplex substrate complex; stimulates telomerase. The settings on record: tags: His6 (pET-28b, E. coli BL21(DE3)); G4. On the procedure:
as §1

Data set [4] has the same target. Description: EMSA; thymine next to G-tract tolerated. The settings on record: tags: His6 (pET-28b, E. coli BL21(DE3)); label: 5' 32P. The protocol:
as §1, §2

The target is the same in data set [5]. Description: competition; very low or no binding. Conditions: tags: His6 (pET-28b, E. coli BL21(DE3)). On the procedure: as §1, §2
For data set [6] the target is unchanged. Description: EMSA; minimal binding site. The settings on record: tags: His6 (pET-28b, E. coli BL21(DE3)); label: 5' 32P. On the procedure: as §1, §2
In data set [7] the target is 28-kDa telomeric DNA-binding protein (hnRNP A2*), rat liver nuclear matrix (Rattus norvegicus). Description: Southwestern blot. The settings on record: label: 5' 32P.
Data set [8] concerns the target T1, hnRNP A2* (hnRNP A2 isoform lacking …). Description: EMSA; 10 mM Tris pH 8.0, 1 mM EDTA, 150 mM KCl, 4 C; 400 nM protein, 80 nM DNA. The settings on record: tags: His6 (pET-28b, E. coli BL21(DE3)); label: 5' 32P. The protocol:
as §1, §2

The target is the same in data set [9]. Description: EMSA; per text: all MBS mutations abolish except thymines near GGG. Conditions: tags: His6 (pET-28b, E. coli BL21(DE3)); label: 5' 32P. The protocol: as §1, §2

T1 sequence (chain, as listed by the source): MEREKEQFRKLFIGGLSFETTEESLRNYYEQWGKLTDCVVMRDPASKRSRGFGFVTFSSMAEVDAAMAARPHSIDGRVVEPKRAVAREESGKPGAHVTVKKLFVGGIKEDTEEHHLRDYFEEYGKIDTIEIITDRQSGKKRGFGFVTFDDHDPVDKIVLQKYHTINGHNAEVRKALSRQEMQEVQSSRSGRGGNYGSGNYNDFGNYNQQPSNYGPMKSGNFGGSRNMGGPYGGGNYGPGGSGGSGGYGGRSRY
Chain of 28-kDa telomeric DNA-binding protein (hnRNP A2*), rat liver nuclear matrix (Rattus norvegicus) (chain, as listed by the source): as above

B1: MBS-containing 15-mer W (ssDNA)
DNA: TAGGGTTAGGGTTAG
With B1, the binding result in [1] is “binds”.

B2: 15-mer G10C (ssDNA)
DNA: TAGGGTTAGCGTTAG
modifications: [none]
B2: the binding result in data set [2] is on record as “no binding”.

B3: 15-mer G9C (ssDNA)
DNA: TAGGGTTACGGTTAG
modifications: [none]
As for B3, in data set [2], the binding result is reported as “no binding”.

B4: 15-mer G5C (ssDNA)
DNA: TAGGCTTAGGGTTAG
modifications: [none]
B4: the binding result in data set [2] is given as “no binding”.

B5: TSG4 (structured_DNA)
DNA: GGGCTAGGGCTAGGGCTAGGGAGTT
Regarding B5, in data set [3], the binding result was “binds”.

B6: 15-mer T6C (ssDNA)
DNA: TAGGGCTAGGGTTAG
modifications: [none]
For B6, in data set [4], the binding result is “binds”.

B7: 15-mer G4C (ssDNA)
DNA: TAGCGTTAGGGTTAG
modifications: [none]
Regarding B7, in data set [2], the binding result is “no binding”.

B8: 15-mer A8C (ssDNA)
DNA: TAGGGTTCGGGTTAG
modifications: [none]
For B8, the binding result in data set [2] is recorded as “no binding”.

B9: 15-mer G3C (ssDNA)
DNA: TACGGTTAGGGTTAG
modifications: [none]
With B9, the binding result in data set [2] is recorded as “no binding”.

B10: (TAAGGG)3 (ssDNA)
DNA: TAAGGGTAAGGGTAAGGG
Regarding B10, the binding result in [5] is reported as “no binding”.

B11: (TTGGGG)3 (ssDNA)
DNA: TTGGGGTTGGGGTTGGGG
Turning to B11, the binding result in data set [5] is “no binding”.

B12: MBS (ssDNA)
DNA: TAGGGTTAGG
For the molecule B12, in data set [6], the binding result is on record as “binds”.

B13: (TTAGGG)3 (ssDNA)
DNA: TTAGGGTTAGGGTTAGGG
Regarding B13, the binding result in [7] and in [8] was “binds” each time.

B14: 15-mer A2C (ssDNA)
DNA: TCGGGTTAGGGTTAG
modifications: [none]
B14: the binding result in data set [9] is reported as “no binding”.

B15: double-stranded (TTAGGG)3 (dsDNA)
DNA 1: TTAGGGTTAGGGTTAGGG
DNA 2: CCCTAACCCTAACCCTAA
For the molecule B15, the binding result in data set [5] was “no binding”.

B16: (TTAGAG)3 (ssDNA)
DNA: TTAGAGTTAGAGTTAGAG
Consider B16, for which the binding result in [5] is on record as “no binding”.
